# Source: article PMC8699212, “Mechanism of Zn^2+ and Ca^2+ Binding to Human S100A1” (Biomolecules, 2021)
# B1: S100A1 (natural protein, human)
# chain: GSELETAMETLINVFHAHSGKEGDKYKLSKKELKELLQTELSGFLDAQKDVDAVDKVMKELDENGDGEVDFQEYVVLVAALTVACNNFFWENS
# modifications: N-formylmethionine (fMet) at the N-terminus
# notes: theoretical mass 10,545.5 Da, measured 10,571.2 ± 1.4 Da (fMet at the N-terminus); also called recombinant S100A1; human S100A1; source: residual Ca2+ removed
# Target: the molecule itself
# Experiment: dynamic light scattering (DLS); 50 µM S100A1, 37 °C, without divalent metal ions or with 0.5-10 mM Ca2+ or Zn2+; hydrodynamic diameter (volume distribution); monomer to dimer
protein,measurement,value
B1,stoichiometry N,2
